We go through 50 sequences from the supplement of paper PMC11780869.

The data set concerns Bacillus subtilis. Description: cleaved RNA product abundance (RNA/gDNA barcode ratio) relative to median wild-type variant (ratio to wild type); higher = more accumulation of the downstream cleavage product. To be noted: cleavage site: cggR-gapA (positions -7 to +36 mutated). The method, then: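 MPRA in B. subtilis. Mutagenized RNase Y cleavage-site regions (9% mutation rate) were inserted into a barcoded reporter mRNA (truncated aprE or tetM). Cells were grown in LB at 37°C to OD600 0.3. The cleaved RNA isoform was gel-purified and its barcodes counted; the RNA:gDNA barcode ratio was normalised to the median wild-type variant, and the median over barcodes is reported per variant. The printed sequence is the variable window only; the reporter flanks are not printed.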

Setting [1] is: experiment (reporter, strain, medium): exp 4a: truncated aprE reporter, strain BJT201 with 2% xylose (RNase J1 expressed).
[2] abbreviates: experiment (reporter, strain, medium): exp 2b: truncated aprE reporter, strain BJT200.
[3] abbreviates: experiment (reporter, strain, medium): exp 6: tetM reporter, strain 168.

Turning to “ACAGACGAAGGAGCCGCAAACAAGTTATTAAGGGTTGAATAATCCCTCAATATAAATATCTCTCACTTATTTAAA”, the “cleaved RNA product abundance” value under setting [1] was found to be 0.183.
Take “ACAGACGAAGGAGCCGCAAACAAGTTATTAAGGTATGAATAATCCCTCAATATAAATATCTCTCACTTATTTAAA”: the “cleaved RNA product abundance” value by setting is: under setting [2], 0.102; under setting [1], 0.0749.
The corresponding values for “ACAGACGAAGGAGCCGCAAACAAGTTATTAAGTGATGAATAATCCCTCAATATAAATATCTCTCACTTATTTAAA” are 0.0954 and 0.0967.
For the sequence “ACAGACGAAGGAGCCGCAAACAAGTTATTAATGGATGAATAATCCCTCAATATAAATATCTCTCACTTATTTAAA”, the “cleaved RNA product abundance” value is 0.0836 under setting [2] and 0.112 under setting [1].
Consider “ACAGACGAAGGAGCCGCAAACAAGTTATTATGGGATGAATAATCCCTCAATATAAATATCTCTCACTTATTTAAA”, for which, under setting [1], the “cleaved RNA product abundance” value amounted to 0.213.
With “ACAGACGAAGGAGCCGCAAACAAGTTATTCAGGGATGAATAATCCCTCAATATAAATATCTCTCACTTATTTAAA”, the “cleaved RNA product abundance” value under setting [2] was 0.495.
Turning to “ACAGACGAAGGAGCCGCAAACAAGTTATTTAGGGATGAATAATCCCTCAATATAAATATCTCTCACTTATTTAAA”, under setting [1], the “cleaved RNA product abundance” value was determined as 0.67.
As to “ACAGACGAAGGAGCCGCAAACAAGTTTTTAAGGGATGAATAATCCCTCAATATAAATATCTCTCACTTATTTAAA”, the “cleaved RNA product abundance” value is, setting by setting: under setting [2], 0.289; under setting [1], 0.304.
Take “ACAGACGAAGGAGCCGCAAACAATTTATTAAGAGATGAATAATCCCTCAATATAAATATCTCTCACTTATTTAAA”: under setting [1], the “cleaved RNA product abundance” value was 0.128.
For “ACAGACGAAGGAGCCGCAAACAATTTATTAAGGGATGAATAATCCCTCAATATAAATATCTCTCACTTATTTAAA”, under setting [1], the “cleaved RNA product abundance” value worked out at 0.756.
Same read-out and setting: under “ACAGACGAAGGAGCCGCAAACACGTTATTAAGGGATGAATAATCCCTCAATATAAATATCTCTCACTTATTTAAA” stands 1.21; under “ACAGACGAAGGAGCCGCAAACTAGTTATTAAGGGATGAATAATCCCTCAATATAAATATCTCTCACTTATTTAAA”, 0.991; under “ACAGACGAAGGAGCCGCAAAGAAAATATTAAGGGATGAATAATCCCTCAATATAAATATCTCTCACTTATTTAAA”, 0.697.
Regarding “ACAGACGAAGGAGCCGCAAAGAAACTATTAAGGGATGAATAATCCCTCAATATAAATATCTCTCACTTATTTAAA”, the “cleaved RNA product abundance” value reads like this: under setting [2], 0.644; under setting [1], 0.557.
“ACAGACGAAGGAGCCGCAAAGAAAGTTATTAAGGGATGAATAATCCCTCAATATAAATATCTCTCACTTATTTAA”: the “cleaved RNA product abundance” value under setting [1] came out at 0.775.
For “ACAGACGAAGGAGCCGCAAAGAAATAATTAAGCGATGAATAATCCCTCAATATAAATATCTCTCACTTATTTAAA”, under setting [1], the “cleaved RNA product abundance” value was 0.166.
“ACAGACGAAGGAGCCGCAAAGAAATAATTAAGGGATGAATAATCCCTCAATATAAATATCTCTCACTTATTTAAA”: the “cleaved RNA product abundance” value reads like this: under setting [2], 0.25; under setting [1], 0.381.
In the case of “ACAGACGAAGGAGCCGCAAAGAAATGATTAAGGGATGAATAATCCCTCAATATAAATATCTCTCACTTATTTAAA”, the “cleaved RNA product abundance” value was 0.354 under setting [2] and 0.457 under setting [1].
Taken in the same sequence, the figures for “ACAGACGAAGGAGCCGCAAAGAAATTAATAAGGGATGAATAATCCCTCAATATAAATATCTCTCACTTATTTAAA” were 0.223 and 0.245.
Regarding “ACAGACGAAGGAGCCGCAAAGAAATTACTAAGGGATGAATAATCCCTCAATATAAATATCTCTCACTTATTTAAA”, under setting [1], the “cleaved RNA product abundance” value came out at 0.247.
For the sequence “ACAGACGAAGGAGCCGCAAAGAAATTAGTAAGGGATGAATAATCCCTCAATATAAATATCTCTCACTTATTTAAA”, the “cleaved RNA product abundance” value under setting [2] is 0.339 and the “cleaved RNA product abundance” value under setting [1] was 0.34.
In the case of “ACAGACGAAGGAGCCGCAAAGAAATTATAAAGGGATGAATAATCCCTCAATATAAATATCTCTCACTTATTTAAA”, the “cleaved RNA product abundance” value under setting [2] turned out to be 0.215 and the “cleaved RNA product abundance” value under setting [1] amounted to 0.342.
For “ACAGACGAAGGAGCCGCAAAGAAATTATCAAGGGATGAATAATCCCTCAATATAAATATCTCTCACTTATTTAAA”, the “cleaved RNA product abundance” value under setting [1] was found to be 0.475.
Turning to “ACAGACGAAGGAGCCGCAAAGAAATTATGAAGGGATGAATAATCCCTCAATATAAATATCTCTCACTTATTTAAA”, under setting [1], the “cleaved RNA product abundance” value amounted to 0.386.
Consider “ACAGACGAAGGAGCCGCAAAGAAATTATTAAAAGATGAATAATCCCTCAATATAAATATCTCTCACTTATTTAAA”, for which the “cleaved RNA product abundance” value under setting [1] was 0.083.
As to “ACAGACGAAGGAGCCGCAAAGAAATTATTAAAGGATGAATAATCCCTCAATATAAATATCTCTCACTTATTTAAA”, the “cleaved RNA product abundance” value under setting [2] was determined as 0.144 and the “cleaved RNA product abundance” value under setting [1] is 0.221.
As for “ACAGACGAAGGAGCCGCAAAGAAATTATTAAAGGATTAATAATCCCTCAATATAAATATCTCTCACTTATTTAAA”, under setting [1], the “cleaved RNA product abundance” value was found to be 0.142.
On to “ACAGACGAAGGAGCCGCAAAGAAATTATTAACGGATGAATAATCCCTCAATATAAATATCTCTCACTTATTTAAA”, for which the “cleaved RNA product abundance” value was determined as 0.142 under setting [2] and 0.168 under setting [1].
On to “ACAGACGAAGGAGCCGCAAAGAAATTATTAAGAGATGAATAATCCCTCAAAATAAATATCTCTCACTTATTTAAA”, for which the “cleaved RNA product abundance” value under setting [2] stood at 0.114.
As to “ACAGACGAAGGAGCCGCAAAGAAATTATTAAGAGATGAATAATCCCTCAATATAAATATCTCTCACTTATTTAAA”, the “cleaved RNA product abundance” value is, setting by setting: under setting [2], 0.121; under setting [1], 0.112.
For the sequence “ACAGACGAAGGAGCCGCAAAGAAATTATTAAGAGATGAATAATCCCTCTATATAAATATCTCTCACTTATTTAAA”, the “cleaved RNA product abundance” value under setting [1] came out at 0.117.
The same measure, in the same setting: then “ACAGACGAAGGAGCCGCAAAGAAATTATTAAGAGATGAATTATCCCTCAATATAAATATCTCTCACTTATTTAAA”, with 0.121; and “ACAGACGAAGGAGCCGCAAAGAAATTATTAAGCGATGAATAATCACTCAATATAAATATCTCTCACTTATTTAAA”, with 0.184.
Take “ACAGACGAAGGAGCCGCAAAGAAATTATTAAGCGATGAATAATCCCTCAATATAAATATCTCTCACTTATTTAAA”: the “cleaved RNA product abundance” value came to 0.096 under setting [2] and 0.121 under setting [1].
For the sequence “ACAGACGAAGGAGCCGCAAAGAAATTATTAAGCGATTAATAATCCCTCAATATAAATATCTCTCACTTATTTAAA”, the “cleaved RNA product abundance” value under setting [1] amounted to 0.0984.
On to “ACAGACGAAGGAGCCGCAAAGAAATTATTAAGGAATGAATAATCCCTCAATATAAATATCTCTCACTTATTTAAA”, for which the “cleaved RNA product abundance” value runs as follows: under setting [2], 0.101; under setting [1], 0.191; under setting [3], 0.104.
As for “ACAGACGAAGGAGCCGCAAAGAAATTATTAAGGAATGAATAATCCTTCAATATAAATATCTCTCACTTATTTAAA”, the “cleaved RNA product abundance” value under setting [1] was determined as 0.153.
In the case of “ACAGACGAAGGAGCCGCAAAGAAATTATTAAGGCATGAATAATCCCTCAATATAAATATCTCTCACTTATTTAAA”, the “cleaved RNA product abundance” value stood at 0.109 under setting [2] and 0.122 under setting [1].
Turning to “ACAGACGAAGGAGCCGCAAAGAAATTATTAAGGGAAGAATAATCCCTCAATATAAATATCTCTCACTTATTTAAA”, the “cleaved RNA product abundance” value under setting [2] worked out at 0.394 and the “cleaved RNA product abundance” value under setting [1] stood at 0.599.
As for “ACAGACGAAGGAGCCGCAAAGAAATTATTAAGGGACGAATAATCCCTCAATATAAATATCTCTCACTTATTTAAA”, the “cleaved RNA product abundance” value was 0.392 under setting [2] and 0.596 under setting [1].
Consider “ACAGACGAAGGAGCCGCAAAGAAATTATTAAGGGATAAATAATCCATCAATATAAATATCTCTCACTTATTTAAA”, for which the “cleaved RNA product abundance” value under setting [1] is 0.216.
For the sequence “ACAGACGAAGGAGCCGCAAAGAAATTATTAAGGGATAAATAATCCCTCAATATAAATATCTCTCACTTATTTAAA”, the “cleaved RNA product abundance” value is 0.818 under setting [2], 0.761 under setting [1] and 1.1 under setting [3].
On to “ACAGACGAAGGAGCCGCAAAGAAATTATTAAGGGATCAATAATCCCTCAATATAAATATCTCTCACTTATTTAAA”, for which the “cleaved RNA product abundance” value under setting [2] stood at 0.646.
Take “ACAGACGAAGGAGCCGCAAAGAAATTATTAAGGGATGAAAAATCCCTCAATATAAATATCTCTCACTTATTTAAA”: the “cleaved RNA product abundance” value is 0.852 under setting [2] and 0.598 under setting [1].
Take “ACAGACGAAGGAGCCGCAAAGAAATTATTAAGGGATGAATAAACCCTCAATATAAATATCTCTCACTTATTTAAA”: the “cleaved RNA product abundance” value is 0.405 under setting [2] and 0.49 under setting [1].
Take “ACAGACGAAGGAGCCGCAAAGAAATTATTAAGGGATGAATAACCCCTCAATATAAATATCTCTCACTTATTTAAA”: the “cleaved RNA product abundance” value under setting [1] stood at 0.671.
As for “ACAGACGAAGGAGCCGCAAAGAAATTATTAAGGGATGAATAAGCCCTCAATATAAATATCTCTCACTTATTTAAA”, the “cleaved RNA product abundance” value under setting [1] amounted to 0.416.
Same read-out and setting: then “ACAGACGAAGGAGCCGCAAAGAAATTATTAAGGGATGAATAATAACTCAATATAAATATCTCTCACTTATTTAAA”, with 0.168.
Turning to “ACAGACGAAGGAGCCGCAAAGAAATTATTAAGGGATGAATAATACCTCAATATAAATATCTCTCACTTATTTAAA”, the “cleaved RNA product abundance” value runs as follows: under setting [2], 0.141; under setting [1], 0.153.
Consider “ACAGACGAAGGAGCCGCAAAGAAATTATTAAGGGATGAATAATCACTCAATATAAATATCTCTCACTTATTTAAA”, for which the “cleaved RNA product abundance” value reads like this: under setting [2], 0.136; under setting [1], 0.122.
